System: ϕC31 integrase (Streptomyces phage ϕC31?)
Experiment: EMSA

| Substance | K half |
| --- | --- |
| attB C-2G, 72 bp fragment | 55.7 nM |
| attB T-15C, 72 bp fragment | 68.3 nM |
| attB G+16A, 72 bp fragment | 53.3 nM |
| attB G-16T:G+16A, 72 bp fragment | 61.3 nM |
| attB C+15G, 72 bp fragment | 72.7 nM |
| attB G-16T, 72 bp fragment | 66 nM |
| attB G+2C, 72 bp fragment | 58.3 nM |
| attB C-2A:G+2T, 72 bp fragment | 56.7 nM |
| attB wt, 72 bp fragment | 61.3 nM |

Reference: article PMC1904298
